# Source: publication PMC7312009, “SIRT7 Deacetylates STRAP to Regulate p53 Activity and Stability” (International Journal of Molecular Sciences, 2020)
# T1: Flag-tagged SIRT7 (UniProt Q9NRC8 1-400)
# T1 construct: also called SIRT7 protein purified from 293T cells; source: purified from 293T cells; HEK293T, transfected, in lysate
# T1 sequence (looked up): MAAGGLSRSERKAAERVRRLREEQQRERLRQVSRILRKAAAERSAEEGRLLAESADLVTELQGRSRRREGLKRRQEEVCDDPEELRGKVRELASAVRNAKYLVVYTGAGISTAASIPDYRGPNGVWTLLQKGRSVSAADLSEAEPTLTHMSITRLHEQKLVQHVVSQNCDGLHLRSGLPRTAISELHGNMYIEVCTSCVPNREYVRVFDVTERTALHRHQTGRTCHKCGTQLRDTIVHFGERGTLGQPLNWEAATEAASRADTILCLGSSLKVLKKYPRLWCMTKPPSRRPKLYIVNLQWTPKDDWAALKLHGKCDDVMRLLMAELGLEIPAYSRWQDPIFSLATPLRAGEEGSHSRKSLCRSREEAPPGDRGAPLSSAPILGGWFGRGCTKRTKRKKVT
# B1: GST-STRAP full length (natural protein, UniProt Q9Y3F4 1-350, looked up)
# chain: MAMRQTPLTCSGHTRPVVDLAFSGITPYGYFLISACKDGKPMLRQGDTGDWIGTFLGHKGAVWGATLNKDATKAATAAADFTAKVWDAVSGDELMTLAHKHIVKTVDFTQDSNYLLTGGQDKLLRIYDLNKPEAEPKEISGHTSGIKKALWCSEDKQILSADDKTVRLWDHATMTEVKSLNFNMSVSSMEYIPEGEILVITYGRSIAFHSAVSLDPIKSFEAPATINSASLHPEKEFLVAGGEDFKLYKYDYNSGEELESYKGHFGPIHCVRFSPDGELYASGSEDGTLRLWQTVVGKTYGLWKCVLPEEDSGELAKPKIGFPETTEEELEEIASENSDCIFPSAPDVKA
# notes: Serine-threonine kinase receptor-associated protein (STRAP), full length, subcloned into pGEX4T-3; also called GST-STRAP (FL); full-length STRAP (WT); source: purified GST fusion protein (pGEX4T-3)
# Biological target: T1, Flag-tagged SIRT7
# Assay: pull-down; 1 μg GST-STRAP fusion protein incubated with Flag-tagged SIRT7 purified from 293T cells in 100 μL BC100 at 4 °C overnight, then glutathione-sepharose beads 2 h; Western blotting
# Settings: both partners purified
binder,measurement,value
B1,binding result,binds
